Data on 1 substance can be found in article PMC7473840, “Identification of a molecular locus for normalizing dysregulated GABA release from interneurons in the Fragile X brain” (Molecular Psychiatry, 2018).

For this experiment, the target named is FMRP (mouse cerebellum) (UniProt P35922). The experiment in a line: anti-FMRP IP, Kv1.2 blot, peptide competition. The note with it: reference: no peptide (control); sites S440,S441.

In turn, “Kv1.2 (from UniProt P63141) 250 μM PhosKv436-457 (pS440/pS441) peptide added” displayed an other: reduction of co-IP'd Kv1.2 of 75%.
